From the RNAGym collection of RNA variant scans (doi:10.7554/elife.90254) come the findings set out here.

To fix the notation:
B1: OR4K15 (parent)
chain: GUUAACGGUCAUAGGCCAUGGAAACUAGGAGCACCAUUUCGCUGCCAGUGAAGAAAUGAACAAAGAAAAUCUGGGCCAGGCAGGCAUCAAAAGAAAUAGUCUUGCGCUCAACCAGAAAGUCUGUAAUCAUUUUAAGGGUA

The data set covers variants of B1. Put plainly: self-cleavage, relative activity (ratio to wild type); higher = more cleavage; in vitro, sequencing; the parent is a self-cleaving ribozyme.
On to A24C A55G, for which the self-cleavage was determined as 1.52.

U9C A116U: the self-cleavage was 0.55.

For A22G A134U, the self-cleavage stood at 1.05.

With U49A A67G, the self-cleavage came to 1.13.

Consider C35U A111U, for which the self-cleavage stood at 0.05.

Turning to A55G A89G, the self-cleavage amounted to 0.59.

As for G119A, the self-cleavage was 2.29.

As for C35U U87C, the self-cleavage is 1.

Consider U2C U72C, for which the self-cleavage was determined as 0.15.

Regarding A63G C88U, the self-cleavage amounted to 1.69.

On to A110G A114U, for which the self-cleavage is 0.03.

With U127C, the self-cleavage was 0.68.

With A4G U103C, the self-cleavage was 1.19.

A91G U131C: the self-cleavage worked out at 1.07.

For U9A U131C, the self-cleavage is 0.4.

Turning to U12A A110U, the self-cleavage turned out to be 1.63.

As for U2C G21A, the self-cleavage amounted to 0.98.

Turning to A24C A98G, the self-cleavage turned out to be 0.56.

Consider A67G U120G, for which the self-cleavage was 1.4.

For U97C A114U, the self-cleavage is 0.1.

For the variant A30G A82U, the self-cleavage was found to be 0.25.

Regarding U49A A98C, the self-cleavage was 1.58.

With A47C A67G, the self-cleavage was found to be 0.84.

On to A54U, for which the self-cleavage worked out at 1.2.

Consider A114G U131C, for which the self-cleavage is 0.15.

Turning to A62G U122C, the self-cleavage was determined as 1.27.

For the variant G73U A86G, the self-cleavage was found to be 0.17.

As for A78G A82U, the self-cleavage was found to be 0.19.

As to U3G A59G, the self-cleavage was determined as 0.68.

Turning to U70A A82U, the self-cleavage came to 0.24.

As to A24G A56U, the self-cleavage was found to be 0.97.

As to U2C A90C, the self-cleavage worked out at 1.23.

Regarding U3C C71U, the self-cleavage is 0.12.

Take A96C C109U: the self-cleavage stood at 0.21.

As to G75A A91G, the self-cleavage came out at 0.14.

Turning to A23G U120A, the self-cleavage was 0.47.

Consider C105U U139C, for which the self-cleavage turned out to be 0.08.

Regarding A24G A134G, the self-cleavage was determined as 0.94.

With A67G C88A, the self-cleavage amounted to 1.16.

With A18G U120C, the self-cleavage turned out to be 1.16.

Turning to U39A U131C, the self-cleavage is 1.59.

On to U38C U87C, for which the self-cleavage was 1.26.

As to U39A A51U, the self-cleavage stood at 1.74.

Turning to A59G A96G, the self-cleavage was determined as 1.66.

A52G A125U: the self-cleavage is 0.86.

Turning to A24G U72G, the self-cleavage came out at 0.26.

As to U122C U133A, the self-cleavage was determined as 0.52.

As for U49A U70C, the self-cleavage was determined as 0.3.

On to A95G U132C, for which the self-cleavage is 2.35.

For A4G A96G, the self-cleavage is 1.4.

Regarding U26C A82U, the self-cleavage was found to be 0.28.

As to A92U A96G, the self-cleavage was 1.85.

Consider A23G G80U, for which the self-cleavage came out at 0.23.

On to A11U A86G, for which the self-cleavage stood at 1.35.

With A60U A114G, the self-cleavage was 0.58.

For A11G A110G, the self-cleavage was 0.12.

For the variant U26C U131C, the self-cleavage turned out to be 1.04.

A18C C113U: the self-cleavage was determined as 0.12.

As to U87C G123C, the self-cleavage was found to be 1.6.

Regarding U39C A140U, the self-cleavage came out at 1.62.

U37C U124C: the self-cleavage came to 0.62.

Turning to U2A U130C, the self-cleavage worked out at 0.85.

As for U39G A64G, the self-cleavage is 1.12.

Turning to A11G C113G, the self-cleavage stood at 0.04.

On to A60G A82U, for which the self-cleavage is 0.12.

Turning to C6A A64G, the self-cleavage is 1.24.

For C17U A51G, the self-cleavage was found to be 0.85.

Turning to U43C U70C, the self-cleavage amounted to 0.83.

With A11G U39C, the self-cleavage stood at 0.96.

As for A111G G138U, the self-cleavage was 0.01.

Consider G28A A98G, for which the self-cleavage is 0.39.

As to U57A A59U, the self-cleavage worked out at 2.2.

Consider A56G U132A, for which the self-cleavage turned out to be 2.05.

Regarding G84C A89G, the self-cleavage is 0.34.

With C35U C71U, the self-cleavage came to 0.22.

A64G U133G: the self-cleavage was 1.05.

In the case of A36C U103C, the self-cleavage came to 1.44.

U102A U103C: the self-cleavage was 0.12.

Consider A30G U72A, for which the self-cleavage turned out to be 0.36.

As to C40A U124C, the self-cleavage was 0.93.

As for C121U U127C, the self-cleavage came to 1.46.

With U26C A68G, the self-cleavage worked out at 1.26.

Regarding A56U U127C, the self-cleavage came to 1.47.

As to A52G U87A, the self-cleavage was 1.23.

With A114G A126G, the self-cleavage is 0.28.

Consider A56G A59G, for which the self-cleavage was 1.2.

Regarding U37A C61U, the self-cleavage was determined as 0.86.

With A24G A62U, the self-cleavage is 1.12.

Turning to A36G U57G, the self-cleavage is 0.68.

Regarding A78G U103C, the self-cleavage was 0.11.

As to C77A U100C, the self-cleavage stood at 0.61.

As for G1U, the self-cleavage came out at 1.07.

As for G41U A66G, the self-cleavage came out at 1.11.

For the variant A86G A116G, the self-cleavage came out at 0.79.

On to A59G A89U, for which the self-cleavage is 0.98.

U9A A92G: the self-cleavage amounted to 1.08.

For the variant U3A A27G, the self-cleavage was determined as 1.25.

As to A24C U122C, the self-cleavage turned out to be 1.49.

Regarding U19C G83A, the self-cleavage turned out to be 1.68.

Consider A60C U122A, for which the self-cleavage was 1.74.

In the case of A64C A82U, the self-cleavage came to 0.26.

Turning to G79U A96U, the self-cleavage amounted to 0.13.

As for A86G A96G, the self-cleavage was found to be 0.71.

Regarding U57A G75A, the self-cleavage was determined as 0.27.

As to A22G A114U, the self-cleavage was found to be 0.08.

For the variant A30U A116G, the self-cleavage turned out to be 1.27.

A33U A134G: the self-cleavage is 1.2.

For G1C A91G, the self-cleavage was 0.65.

U3C A135G: the self-cleavage turned out to be 0.99.

In the case of U2C G29A, the self-cleavage is 1.36.

In the case of A54G A90G, the self-cleavage was 0.86.

In the case of U3C U103C, the self-cleavage is 1.12.

As to A69C A117U, the self-cleavage was 0.21.

On to U43A U139C, for which the self-cleavage is 2.42.

With A91G G119U, the self-cleavage is 0.81.

In the case of A60G A64G, the self-cleavage is 1.24.

Regarding A116G U122C, the self-cleavage was found to be 0.4.

Take G14A A55G: the self-cleavage is 1.58.

On to U87G U108C, for which the self-cleavage was 0.02.

For the variant C6U U57A, the self-cleavage turned out to be 0.77.

Consider U9A A52C, for which the self-cleavage came out at 2.25.

As for A66G A94G, the self-cleavage was 1.55.

A52G U97C: the self-cleavage came out at 1.07.

As to A95G U124C, the self-cleavage amounted to 1.85.

On to U38C U49A, for which the self-cleavage was 1.45.

As to A13G A63G, the self-cleavage came to 0.97.

Take A5G U57C: the self-cleavage stood at 0.68.

As for A82C A89G, the self-cleavage came to 0.16.

As to A30U, the self-cleavage came to 1.24.

Turning to A23G A134U, the self-cleavage amounted to 0.77.

For the variant A90G G123A, the self-cleavage was determined as 0.48.

On to A13U A98U, for which the self-cleavage was 2.18.

As to A22U A90G, the self-cleavage was 0.91.

In the case of C77U A114U, the self-cleavage amounted to 0.14.

Consider U49A C61U, for which the self-cleavage was 1.38.

For the variant U3C A64G, the self-cleavage worked out at 0.7.

Consider A68G U122A, for which the self-cleavage was found to be 0.93.

On to A82G A96U, for which the self-cleavage turned out to be 0.45.

For the variant A94C U131C, the self-cleavage is 0.24.

For U2A A134G, the self-cleavage came out at 1.65.

For C105U U122A, the self-cleavage is 0.27.

For the variant A23G A86G, the self-cleavage was 0.99.

For A5U A30U, the self-cleavage was 1.11.

Regarding A69G A114C, the self-cleavage stood at 0.01.

For the variant U2C A91G, the self-cleavage came out at 1.08.

Consider G119A U122C, for which the self-cleavage was found to be 1.11.

With A95G G137A, the self-cleavage came to 0.66.

As for U38C A52C, the self-cleavage is 0.68.

As for G48A U133C, the self-cleavage is 2.78.

In the case of U3C A110U, the self-cleavage was found to be 1.16.

As to A78U U102C, the self-cleavage was found to be 1.21.

As for U49C A82G, the self-cleavage was determined as 0.42.

As to U102C A111U, the self-cleavage is 0.04.

As to A11U A116C, the self-cleavage was found to be 0.23.

With U39A A125G, the self-cleavage is 1.01.

With U9C A82G, the self-cleavage came out at 0.58.

As to A51U U139A, the self-cleavage was 1.14.

For the variant A51U U132G, the self-cleavage worked out at 1.49.

As for A51U U102C, the self-cleavage was found to be 1.99.

For the variant U12C A18C, the self-cleavage turned out to be 0.58.

As to C109A U120C, the self-cleavage was 0.36.

On to A86U A126G, for which the self-cleavage is 1.63.

Consider A110U U124A, for which the self-cleavage was 0.9.

With C17A G20A, the self-cleavage worked out at 1.56.

Take U43A U122G: the self-cleavage is 2.29.

With C112U U122A, the self-cleavage was 0.01.

Take A66G A86C: the self-cleavage amounted to 1.45.
